For this series, the system named is CD34-expressing LT-HSPCs. The experiment in a line: Indel formation at HBB locus by TIDE analysis. The format is cell-based, human. The note with it: RNP of Cas9 and R02 gRNA only; TIDE; FIG. 11. Here is the method: Editing efficiency at the HBB locus was evaluated by measuring indel formation by TIDE analysis. […] This group had 1.7-fold reduction in INDEL frequency relative to cells treated with RNP+AAV,

B1: R02 gRNA: sgRNA targeting the HBB locus (SEQ ID NO: 17), used as RNP with Cas9 (nucleic acid)
guide: CNUNUNGCCCCACAGGGCAGUAAGUUUUAGAGCUAGAAAUAGCAAGUUAAAAUAAGGCUAGUCCGUUAUCAACUUGAAAAAGUGGCACCGAGUCGGUGCUNUNUNU
modifications: Synthetic gRNA-related, HBB sgRNA; modified_base (1)..(6) every c and u is a 2′ O-methyl phosphorothioate nucleotide; (2)..(2) n is a phosphorothioate nucleotide; (4)..(4) n is a phosphorothioate nucleotide; (6)..(6) n is a phosphorothioate nucleotide; modified_base (100)..(104) every u is a 2′ O-methyl phosphorothioate nucleotide; (101)..(101) n is a phosphorothioate nucleotide; (103)..(103) n is
Take B1: the indel formation worked out at 94%.
